Results on 1 molecule are retold here after article doi:10.1101/2025.05.07.652689, “Structural features within precursor microRNA-20a regulate Dicer-TRBP processing” (bioRxiv, 2025).

In this assay the target is T1, Recombinant human Dicer (FLAG-Dicer) (human, UniProt Q9UPY3 1-1922).
T1 construct: Dicer, human RNase III enzyme; source: Expi293 cells expressing FLAG-Dicer (University of Michigan Protein core), purified (M2 anti-FLAG resin)
Put plainly: SEC; purified Dicer and TRBP mixed at a 1:3 molar ratio, concentrated, loaded on HiLoad 16/600 Superdex 200 in buffer D (20 mM Tris-HCl pH 8.0, 150 mM NaCl, 2 mM DTT). Conditions: both partners purified. In general terms: SEC sorts molecules by how far they enter the pores of the column.

T1 sequence (Q9UPY3 whole entry): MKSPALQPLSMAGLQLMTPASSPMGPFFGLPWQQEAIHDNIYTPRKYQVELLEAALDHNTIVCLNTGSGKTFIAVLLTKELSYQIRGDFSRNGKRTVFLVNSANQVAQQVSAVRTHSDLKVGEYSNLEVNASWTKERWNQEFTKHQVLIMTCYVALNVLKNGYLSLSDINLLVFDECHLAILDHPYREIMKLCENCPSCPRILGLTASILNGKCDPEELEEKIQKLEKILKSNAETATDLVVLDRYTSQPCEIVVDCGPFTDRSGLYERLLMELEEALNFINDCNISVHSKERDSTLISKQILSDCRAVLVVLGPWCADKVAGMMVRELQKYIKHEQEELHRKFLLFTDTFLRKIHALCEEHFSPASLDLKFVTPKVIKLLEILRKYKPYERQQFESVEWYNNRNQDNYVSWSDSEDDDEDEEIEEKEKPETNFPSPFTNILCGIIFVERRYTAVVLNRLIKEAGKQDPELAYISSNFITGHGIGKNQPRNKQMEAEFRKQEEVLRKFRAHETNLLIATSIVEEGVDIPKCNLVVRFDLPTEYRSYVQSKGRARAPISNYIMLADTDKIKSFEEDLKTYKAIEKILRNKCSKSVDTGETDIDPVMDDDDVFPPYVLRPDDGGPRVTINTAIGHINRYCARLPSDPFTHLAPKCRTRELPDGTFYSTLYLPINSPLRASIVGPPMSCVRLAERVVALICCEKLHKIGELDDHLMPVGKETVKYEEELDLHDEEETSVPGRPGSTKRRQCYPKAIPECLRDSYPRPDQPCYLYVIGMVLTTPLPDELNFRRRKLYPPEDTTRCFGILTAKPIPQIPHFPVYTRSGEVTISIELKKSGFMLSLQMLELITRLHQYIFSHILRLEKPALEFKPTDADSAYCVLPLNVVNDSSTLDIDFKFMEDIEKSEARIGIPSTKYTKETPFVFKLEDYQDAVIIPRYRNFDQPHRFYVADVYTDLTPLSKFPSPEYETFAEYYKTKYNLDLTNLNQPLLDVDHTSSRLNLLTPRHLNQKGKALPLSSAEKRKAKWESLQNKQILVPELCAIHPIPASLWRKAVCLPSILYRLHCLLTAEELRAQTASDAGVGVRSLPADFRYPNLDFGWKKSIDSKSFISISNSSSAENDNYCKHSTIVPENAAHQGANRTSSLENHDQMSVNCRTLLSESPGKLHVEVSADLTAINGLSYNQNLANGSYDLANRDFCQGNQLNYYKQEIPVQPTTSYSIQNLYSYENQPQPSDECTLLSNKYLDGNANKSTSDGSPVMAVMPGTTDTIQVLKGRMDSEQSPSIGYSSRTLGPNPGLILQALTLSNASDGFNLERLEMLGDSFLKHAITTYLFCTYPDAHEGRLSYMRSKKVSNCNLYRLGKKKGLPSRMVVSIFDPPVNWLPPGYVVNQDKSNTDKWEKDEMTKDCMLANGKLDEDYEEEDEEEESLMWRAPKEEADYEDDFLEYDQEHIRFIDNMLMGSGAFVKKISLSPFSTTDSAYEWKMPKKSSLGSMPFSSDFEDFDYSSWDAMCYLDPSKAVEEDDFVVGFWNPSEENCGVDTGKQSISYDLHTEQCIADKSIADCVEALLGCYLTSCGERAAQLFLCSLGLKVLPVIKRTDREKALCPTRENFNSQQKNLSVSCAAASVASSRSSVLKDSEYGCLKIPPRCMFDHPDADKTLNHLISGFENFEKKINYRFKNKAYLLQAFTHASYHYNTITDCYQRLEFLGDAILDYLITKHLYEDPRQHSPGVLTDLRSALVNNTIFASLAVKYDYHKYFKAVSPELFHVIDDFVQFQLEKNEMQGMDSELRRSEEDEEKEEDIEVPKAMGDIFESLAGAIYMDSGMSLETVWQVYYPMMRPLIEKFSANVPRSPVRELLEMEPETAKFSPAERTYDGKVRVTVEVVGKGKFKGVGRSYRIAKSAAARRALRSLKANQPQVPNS

B1: human transactivation response element RNA-binding protein (TRBP) (natural protein, UniProt Q15633 1-366, looked up)
chain: MSEEEQGSGTTTGCGLPSIEQMLAANPGKTPISLLQEYGTRIGKTPVYDLLKAEGQAHQPNFTFRVTVGDTSCTGQGPSKKAAKHKAAEVALKHLKGGSMLEPALEDSSSFSPLDSSLPEDIPVFTAAAAATPVPSVVLTRSPPMELQPPVSPQQSECNPVGALQELVVQKGWRLPEYTVTQESGPAHRKEFTMTCRVERFIEIGSGTSKKLAKRNAAAKMLLRVHTVPLDARDGNEVEPDDDHFSIGVGSRLDGLRNRGPGCTWDSLRNSVGEKILSLRSCSLGSLGALGPACCRVLSELSEEQAFHVSYLDIEELSLSGLCQCLVELSTQPATVCHGSATTREAARGEAARRALQYLKIMAGSK
notes: TRBP, human, from plasmid pET28a-TRBP; The construct is that of Addgene plasmid #50351
As to B1, the binding result is reported as “binds”.
